# Experimental data: US20160355605A1 (published 2016)
# Columns and labels:
# [1] = target: T1, Muc1 mucin bearing the CA6 sialoglycotope (DS6 antigen), as expressed by CA6-positive human tumour cell lines (human, UniProt P15941 24-1255, CA6 epitope: sialic acid-dependent glycotope on sialylated O-linked carbohydrate chains; sites not stated); assay: flow cytometry competition; competitor 2 nM biotin-muDS6, streptavidin-DTAF (called apparent EC50 in paragraph 357)
# T1 construct: whole, on cells; Flow cytometry used whole cells; dot blots, immunoprecipitation and western blots used cell lysates; also called CA6 antigen; >250 kDa band
# [2] = target: T1, Muc1 mucin bearing the CA6 …; assay: flow cytometry, direct binding to KB cells; apparent Kd
# Protocol: In the first set of experiments direct binding to a CA6-expressing cell line, KB, was measured.
# [3] = target: T1, Muc1 mucin bearing the CA6 …; assay: cell-based or functional assay
Binder,IC50 [1] [nM],Kd [2] [nM],"in vitro cytotoxicity (MTT), WISH cells, IC50 [3] [nM]"
"murine DS6 anti-CA6 monoclonal antibody (antibody, V domains shown, Murine monoclonal IgG purified from the hybridoma (ATCC PTA-4449); also called muDS6; DS6 antibody) VH: QAYLQQSGAELVRSGASVKMSCKASGYTFTSYNMHWVKQTPGQGLEWIGYIYPGNGATNYNQKFKGKATLTADPSSSTAYMQISSLTSEDSAVYFCARGDSVPFAYWGQGTLVTVSA VL: QIVLTQSPAIMSASPGEKVTITCSAHSSVSFMHWFQQKPGTSPKLWIYSTSSLASGVPARFGGSGSGTSYSLTISRMEAEDAATYYCQQRSSFPLTFGAGTKLELKR",1.9,–,–
"chimeric DS6 antibody (antibody, V domains shown, also called chDS6) VH: QAYLQQSGAELVRSGASVKMSCKASGYTFTSYNMHWVKQTPGQGLEWIGYIYPGNGATNYNQKFKGKATLTADPSSSTAYMQISSLTSEDSAVYFCARGDSVPFAYWGQGTLVTVSA VL: QIVLTQSPAIMSASPGEKVTITCSAHSSVSFMHWFQQKPGTSPKLWIYSTSSLASGVPARFGGSGSGTSYSLTISRMEAEDAATYYCQQRSSFPLTFGAGTKLELKR",1.7,–,–
"humanized DS6 antibody version 1.01 (antibody, V domains shown, also called huDS6v1.01; huDS6 v1.01) VH: QAQLVQSGAEVVKPGASVKMSCKASGYTFTSYNMHWVKQTPGQGLEWIGYIYPGNGATNYNQKFQGKATLTADTSSSTAYMQISSLTSEDSAVYFCARGDSVPFAYWGQGTLVTVSA VL: EIVLTQSPATMSASPGERVTITCSAHSSVSFMHWFQQKPGTSPKLWIYSTSSLASGVPARFGGSGSGTSYSLTISSMEAEDAATYYCQQRSSFPLTFGAGTKLELKR",3,0.82,–
"huDS6v1.01-SPDB-DM4 conjugate (antibody, human IgG1, V domains shown, DM4 maytansinoid via SPDB disulfide linker, 3.2 DM4 per antibody; sites not stated) VH: QAQLVQSGAEVVKPGASVKMSCKASGYTFTSYNMHWVKQTPGQGLEWIGYIYPGNGATNYNQKFQGKATLTADTSSSTAYMQISSLTSEDSAVYFCARGDSVPFAYWGQGTLVTVSA VL: EIVLTQSPATMSASPGERVTITCSAHSSVSFMHWFQQKPGTSPKLWIYSTSSLASGVPARFGGSGSGTSYSLTISSMEAEDAATYYCQQRSSFPLTFGAGTKLELKR",–,–,0.44
"humanized DS6 antibody version 1.21 (antibody, V domains shown, also called huDS6v1.21; huDS6 v1.21) VH: QAQLVQSGAEVVKPGASVKMSCKASGYTFTSYNMHWVKQTPGQGLEWIGYIYPGNGATNYNQKFQGKATLTADPSSSTAYMQISSLTSEDSAVYFCARGDSVPFAYWGQGTLVTVSA VL: EIVLTQSPATMSASPGERVTITCSAHSSVSFMHWFQQKPGTSPKLWIYSTSSLASGVPARFGGSGSGTSYSLTISSMEAEDAATYYCQQRSSFPLTFGAGTKLELKR",1.9,0.85,–
